Literature values, collected in article PMC12990809.

Assays:
Experiment in all cases: pulldown
Conditions in all cases: 20 nM protein, 1.5 uM RNA pool; 20 mM HEPES pH 7.8, 70 mM KCl, 10 mM NaCl, 10% glycerol, 2 mM DTT, 0.1 ug/uL BSA; 30 min, 4 C (protocol of this paper; not …); cited from earlier work
[1] = biological target: T1, rbm4.3 (Danio rerio) (UniProt A0ACM8Q3W8)
T1 sequence: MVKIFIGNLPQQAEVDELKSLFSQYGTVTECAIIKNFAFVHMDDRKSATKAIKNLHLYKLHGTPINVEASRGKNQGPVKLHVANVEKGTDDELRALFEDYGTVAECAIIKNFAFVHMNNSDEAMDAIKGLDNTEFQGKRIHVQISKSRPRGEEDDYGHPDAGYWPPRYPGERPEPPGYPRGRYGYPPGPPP

[2] = biological target: T2, PFF0320c (Plasmodium falciparum) (UniProt C6KSR3)
T2 sequence: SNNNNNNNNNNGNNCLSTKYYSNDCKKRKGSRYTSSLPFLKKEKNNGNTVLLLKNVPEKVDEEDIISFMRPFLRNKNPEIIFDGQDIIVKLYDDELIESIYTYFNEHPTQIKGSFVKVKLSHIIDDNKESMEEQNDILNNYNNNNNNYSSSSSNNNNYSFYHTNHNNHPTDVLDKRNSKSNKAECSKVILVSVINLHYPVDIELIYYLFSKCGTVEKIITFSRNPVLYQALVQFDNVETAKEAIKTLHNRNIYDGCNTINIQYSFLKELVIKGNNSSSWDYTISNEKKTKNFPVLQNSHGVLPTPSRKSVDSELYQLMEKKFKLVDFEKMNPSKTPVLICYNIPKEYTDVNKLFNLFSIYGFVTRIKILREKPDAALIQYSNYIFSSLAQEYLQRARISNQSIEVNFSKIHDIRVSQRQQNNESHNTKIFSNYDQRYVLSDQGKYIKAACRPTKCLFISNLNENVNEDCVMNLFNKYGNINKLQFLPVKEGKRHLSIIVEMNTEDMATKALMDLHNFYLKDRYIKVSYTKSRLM

[3] = biological target: hnrnpabb (Tetraodon nigroviridis) (UniProt Q4SDS6)
Sequence of hnrnpabb (Tetraodon nigroviridis) (Q4SDS6 entry or part of it): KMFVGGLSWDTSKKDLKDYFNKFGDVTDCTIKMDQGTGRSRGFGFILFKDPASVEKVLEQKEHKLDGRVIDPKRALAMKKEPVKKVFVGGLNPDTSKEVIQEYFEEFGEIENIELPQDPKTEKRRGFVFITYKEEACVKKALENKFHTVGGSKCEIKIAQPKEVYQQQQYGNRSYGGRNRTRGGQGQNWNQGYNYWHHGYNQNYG

[4] = biological target: T3, Tb11.01.7680 (Trypanosoma brucei) (UniProt Q381I4)
T3 sequence: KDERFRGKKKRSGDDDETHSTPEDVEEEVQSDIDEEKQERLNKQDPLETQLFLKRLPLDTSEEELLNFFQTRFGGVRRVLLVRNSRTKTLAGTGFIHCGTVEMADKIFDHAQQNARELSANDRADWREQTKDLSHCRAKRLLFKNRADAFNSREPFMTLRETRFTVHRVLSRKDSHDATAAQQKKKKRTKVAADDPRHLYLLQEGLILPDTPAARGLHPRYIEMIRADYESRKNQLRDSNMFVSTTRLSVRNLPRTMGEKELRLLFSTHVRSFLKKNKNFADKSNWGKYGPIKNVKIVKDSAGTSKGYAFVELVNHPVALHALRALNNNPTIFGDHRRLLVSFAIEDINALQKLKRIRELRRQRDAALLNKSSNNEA

[5] = biological target: T4, MAL13P1.35 (Plasmodium falciparum) (UniProt C0H5A4)
T4 sequence: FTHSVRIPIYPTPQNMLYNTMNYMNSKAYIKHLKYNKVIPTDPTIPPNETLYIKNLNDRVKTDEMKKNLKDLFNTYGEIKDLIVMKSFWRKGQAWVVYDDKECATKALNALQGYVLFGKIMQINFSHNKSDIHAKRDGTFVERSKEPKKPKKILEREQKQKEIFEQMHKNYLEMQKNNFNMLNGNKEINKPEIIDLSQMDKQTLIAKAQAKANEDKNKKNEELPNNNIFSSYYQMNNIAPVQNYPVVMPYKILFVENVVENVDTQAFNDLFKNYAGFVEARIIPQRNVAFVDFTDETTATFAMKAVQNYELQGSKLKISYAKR

[6] = biological target: T5, PF10_0214 (Plasmodium falciparum) (UniProt Q8IJI3)
T5 sequence: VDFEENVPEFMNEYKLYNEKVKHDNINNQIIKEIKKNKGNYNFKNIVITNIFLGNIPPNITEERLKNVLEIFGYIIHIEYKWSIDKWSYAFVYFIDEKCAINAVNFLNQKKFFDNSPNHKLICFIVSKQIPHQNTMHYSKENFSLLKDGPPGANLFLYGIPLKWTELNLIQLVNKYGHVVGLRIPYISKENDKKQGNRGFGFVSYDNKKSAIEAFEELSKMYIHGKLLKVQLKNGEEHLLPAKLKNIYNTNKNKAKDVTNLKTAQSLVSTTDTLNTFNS

[7] = biological target: T6, Smp_067420 (Schistosoma mansoni) (UniProt G4LZ80)
T6 sequence: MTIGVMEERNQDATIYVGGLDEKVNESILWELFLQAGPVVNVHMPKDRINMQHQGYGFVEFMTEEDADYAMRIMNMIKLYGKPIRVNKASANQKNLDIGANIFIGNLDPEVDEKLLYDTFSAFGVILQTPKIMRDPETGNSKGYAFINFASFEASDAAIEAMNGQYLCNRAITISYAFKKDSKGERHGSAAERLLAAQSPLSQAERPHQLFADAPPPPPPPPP

[8] = biological target: Pcbp1 (Mus musculus) (UniProt P60335)
Sequence of Pcbp1 (Mus musculus) (P60335 whole entry): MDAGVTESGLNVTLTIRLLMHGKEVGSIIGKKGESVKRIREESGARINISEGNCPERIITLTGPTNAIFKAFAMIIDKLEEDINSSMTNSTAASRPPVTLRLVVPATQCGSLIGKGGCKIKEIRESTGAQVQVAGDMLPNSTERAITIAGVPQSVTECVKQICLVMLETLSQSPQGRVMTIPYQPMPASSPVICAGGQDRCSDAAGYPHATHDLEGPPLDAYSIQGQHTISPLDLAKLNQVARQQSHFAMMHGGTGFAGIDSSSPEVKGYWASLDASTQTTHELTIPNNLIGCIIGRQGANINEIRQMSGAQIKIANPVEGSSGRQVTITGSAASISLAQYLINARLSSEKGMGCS

[9] = biological target: pcbp2 (Danio rerio) (UniProt A0A8M1PCB6)
Sequence of pcbp2 (Danio rerio) (A0A8M1PCB6 entry or part of it): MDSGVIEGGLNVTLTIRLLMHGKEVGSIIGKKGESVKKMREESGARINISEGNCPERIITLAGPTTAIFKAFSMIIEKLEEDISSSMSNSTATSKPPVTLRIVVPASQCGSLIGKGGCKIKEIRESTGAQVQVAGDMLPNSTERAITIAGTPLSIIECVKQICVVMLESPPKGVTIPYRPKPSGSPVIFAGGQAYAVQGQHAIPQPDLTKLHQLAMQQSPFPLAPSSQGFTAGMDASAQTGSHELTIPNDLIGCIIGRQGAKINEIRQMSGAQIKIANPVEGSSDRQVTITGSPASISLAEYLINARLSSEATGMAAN

[10] = biological target: T7, Tb927.3.3670 (Trypanosoma brucei) (UniProt Q57WA3)
T7 sequence: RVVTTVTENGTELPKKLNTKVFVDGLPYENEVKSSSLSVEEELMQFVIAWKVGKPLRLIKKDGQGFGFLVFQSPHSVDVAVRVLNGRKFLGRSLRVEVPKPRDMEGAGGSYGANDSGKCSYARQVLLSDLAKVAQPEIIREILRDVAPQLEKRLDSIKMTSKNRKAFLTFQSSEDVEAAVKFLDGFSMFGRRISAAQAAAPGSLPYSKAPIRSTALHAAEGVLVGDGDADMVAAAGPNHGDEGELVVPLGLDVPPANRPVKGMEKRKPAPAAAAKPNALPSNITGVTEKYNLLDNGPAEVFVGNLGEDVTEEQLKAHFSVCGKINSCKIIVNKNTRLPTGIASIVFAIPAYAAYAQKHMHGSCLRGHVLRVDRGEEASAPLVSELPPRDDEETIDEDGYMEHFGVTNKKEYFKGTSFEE

[11] = biological target: T8, Rbm45 (Mus musculus) (UniProt Q8BHN5)
T8 sequence: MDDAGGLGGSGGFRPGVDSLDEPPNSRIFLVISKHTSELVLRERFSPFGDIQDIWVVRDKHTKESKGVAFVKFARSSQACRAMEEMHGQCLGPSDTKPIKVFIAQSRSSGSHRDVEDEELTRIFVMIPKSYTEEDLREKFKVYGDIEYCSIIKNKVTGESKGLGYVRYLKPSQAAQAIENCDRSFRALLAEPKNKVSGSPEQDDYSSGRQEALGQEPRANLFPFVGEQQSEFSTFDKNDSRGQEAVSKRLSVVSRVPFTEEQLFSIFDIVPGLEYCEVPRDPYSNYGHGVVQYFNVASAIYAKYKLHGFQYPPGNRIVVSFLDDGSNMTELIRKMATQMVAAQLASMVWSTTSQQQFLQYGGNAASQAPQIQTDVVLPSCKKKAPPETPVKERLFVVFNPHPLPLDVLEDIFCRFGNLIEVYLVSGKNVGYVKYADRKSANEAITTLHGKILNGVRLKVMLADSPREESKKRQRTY

[12] = biological target: T9, estExt_gwp_gw1.C_700168 (Physcomitrella patens) (UniProt A0A2K1JQP1)
T9 sequence: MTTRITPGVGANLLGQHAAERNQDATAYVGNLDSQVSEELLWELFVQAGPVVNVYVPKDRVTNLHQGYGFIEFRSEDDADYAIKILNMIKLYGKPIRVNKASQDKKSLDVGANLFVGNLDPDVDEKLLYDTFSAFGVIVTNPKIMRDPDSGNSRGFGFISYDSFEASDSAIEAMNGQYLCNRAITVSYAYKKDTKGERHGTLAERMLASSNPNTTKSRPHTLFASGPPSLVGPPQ

[13] = biological target: T10, NCU02404 (Neurospora crassa) (UniProt V5ILJ4)
T10 sequence: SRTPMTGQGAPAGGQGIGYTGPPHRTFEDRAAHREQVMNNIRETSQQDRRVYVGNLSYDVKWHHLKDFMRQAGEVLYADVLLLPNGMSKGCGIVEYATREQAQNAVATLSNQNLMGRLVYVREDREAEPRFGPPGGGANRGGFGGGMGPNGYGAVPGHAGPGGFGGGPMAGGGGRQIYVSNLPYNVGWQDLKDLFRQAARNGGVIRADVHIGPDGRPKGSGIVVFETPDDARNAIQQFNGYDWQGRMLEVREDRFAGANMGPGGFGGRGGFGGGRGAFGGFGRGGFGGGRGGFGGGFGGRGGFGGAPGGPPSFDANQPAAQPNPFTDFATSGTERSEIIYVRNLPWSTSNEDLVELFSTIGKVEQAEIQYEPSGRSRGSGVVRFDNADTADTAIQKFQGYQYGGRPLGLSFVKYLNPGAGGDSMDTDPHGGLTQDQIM

[14] = biological target: T11, fox-1 ins385_GNEYIMYHQAKQQELP (Caenorhabditis elegans) (UniProt Q10572)
T11 sequence: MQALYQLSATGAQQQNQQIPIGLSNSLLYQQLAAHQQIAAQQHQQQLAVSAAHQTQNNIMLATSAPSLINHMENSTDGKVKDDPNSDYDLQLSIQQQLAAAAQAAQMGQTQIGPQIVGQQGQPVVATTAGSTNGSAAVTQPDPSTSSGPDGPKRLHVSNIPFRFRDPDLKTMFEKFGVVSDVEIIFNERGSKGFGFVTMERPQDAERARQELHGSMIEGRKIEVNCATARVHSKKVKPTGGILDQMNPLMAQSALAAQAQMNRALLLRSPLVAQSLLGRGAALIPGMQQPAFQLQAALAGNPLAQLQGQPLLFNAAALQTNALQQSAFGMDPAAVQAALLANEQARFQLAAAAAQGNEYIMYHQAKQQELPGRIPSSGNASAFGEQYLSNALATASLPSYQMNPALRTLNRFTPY

[15] = biological target: T12, Tb11.03.0170 (Trypanosoma brucei) (UniProt Q387F5)
T12 sequence: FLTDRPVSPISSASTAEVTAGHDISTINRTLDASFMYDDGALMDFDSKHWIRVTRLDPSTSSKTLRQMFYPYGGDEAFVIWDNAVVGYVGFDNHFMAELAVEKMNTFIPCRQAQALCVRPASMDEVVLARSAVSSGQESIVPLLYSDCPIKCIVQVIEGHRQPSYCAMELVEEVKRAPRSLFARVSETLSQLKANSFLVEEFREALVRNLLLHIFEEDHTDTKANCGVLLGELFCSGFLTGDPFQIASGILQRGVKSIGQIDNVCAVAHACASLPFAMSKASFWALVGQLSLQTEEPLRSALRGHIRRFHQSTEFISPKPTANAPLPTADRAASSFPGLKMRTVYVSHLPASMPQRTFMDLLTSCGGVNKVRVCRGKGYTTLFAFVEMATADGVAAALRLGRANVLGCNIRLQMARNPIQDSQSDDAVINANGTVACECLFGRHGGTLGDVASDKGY

[16] = biological target: T13, Phyra93644 G140S (Phytophthora ramorum) (UniProt H3HB24)
T13 sequence: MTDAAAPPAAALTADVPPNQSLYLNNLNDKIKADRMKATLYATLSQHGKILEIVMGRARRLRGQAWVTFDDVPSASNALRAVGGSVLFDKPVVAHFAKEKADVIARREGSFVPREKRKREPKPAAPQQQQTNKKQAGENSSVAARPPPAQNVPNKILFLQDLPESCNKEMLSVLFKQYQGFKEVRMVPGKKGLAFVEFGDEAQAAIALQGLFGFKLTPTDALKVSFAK

[17] = biological target: T14, TVAG_514790 (Trichomonas vaginalis) (UniProt A2GMP0)
T14 sequence: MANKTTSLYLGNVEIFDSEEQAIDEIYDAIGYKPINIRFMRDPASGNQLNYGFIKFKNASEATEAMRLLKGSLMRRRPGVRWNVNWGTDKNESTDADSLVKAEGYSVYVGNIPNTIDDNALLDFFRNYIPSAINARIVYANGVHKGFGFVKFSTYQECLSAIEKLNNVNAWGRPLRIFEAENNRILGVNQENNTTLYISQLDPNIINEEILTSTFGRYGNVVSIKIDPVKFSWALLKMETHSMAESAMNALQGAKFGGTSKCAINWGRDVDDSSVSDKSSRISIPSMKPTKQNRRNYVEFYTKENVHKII

Sequence: ACGACG [RNAcompete motif RNCMPT00248]
- binding signal (z-score (mean of top ten 7-mers)) [1]: 10.2

Sequence: ACUAAAC [RNAcompete motif RNCMPT00235]
- binding signal (z-score (mean of top ten 7-mers)) [2]: 8.17

Sequence: AGAUAGA [RNAcompete motif RNCMPT00245]
- binding signal (z-score (mean of top ten 7-mers)) [3]: 8.14

Sequence: AGUAGAU [RNAcompete motif RNCMPT00252]
- binding signal (z-score (mean of top ten 7-mers)) [4]: 7.34

Sequence: AUUACAC [RNAcompete motif RNCMPT00234]
- binding signal (z-score (mean of top ten 7-mers)) [5]: 15.8

Sequence: AUUCCGA [RNAcompete motif RNCMPT00240]
- binding signal (z-score (mean of top ten 7-mers)) [6]: 11.3

Sequence: AUUUUUU [RNAcompete motif RNCMPT00232]
- binding signal (z-score (mean of top ten 7-mers)) [7]: 8.88

Sequence: CUUUCCC [RNAcompete motif RNCMPT00239]
- binding signal (z-score (mean of top ten 7-mers)) [8]: 6.21

Sequence: CUUUCCC [RNAcompete motif RNCMPT00246]
- binding signal (z-score (mean of top ten 7-mers)) [9]: 6.92

Sequence: GAAGGA [RNAcompete motif RNCMPT00230]
- binding signal (z-score (mean of top ten 7-mers)) [10]: 6.23

Sequence: GACGAC [RNAcompete motif RNCMPT00241]
- binding signal (z-score (mean of top ten 7-mers)) [11]: 10.6

Sequence: GAUGGAGU [RNAcompete motif RNCMPT00237]
- binding signal (z-score (mean of top ten 7-mers)) [12]: 9.26

Sequence: GGAGGA [RNAcompete motif RNCMPT00238]
- binding signal (z-score (mean of top ten 7-mers)) [13]: 6.21

Sequence: UGCAUG [RNAcompete motif RNCMPT00017]
- binding signal (z-score (mean of top ten 7-mers)) [14]: 24.8

Sequence: UUCACAC [RNAcompete motif RNCMPT00251]
- binding signal (z-score (mean of top ten 7-mers)) [15]: 9.19

Sequence: UUGCAC [RNAcompete motif RNCMPT00249]
- binding signal (z-score (mean of top ten 7-mers)) [16]: 12

Sequence: UUUUUU [RNAcompete motif RNCMPT00236]
- binding signal (z-score (mean of top ten 7-mers)) [17]: 10.3
